Patent publication US12186374B2 (Sanofi-Aventis Deutschland GmbH, priority 2014, dated 2025)

Experiments:
patients with T2DM = system: patients with T2DM; set-up: species or system human; conditions: in vivo
Excerpt: (§1) The mission of the ARAC will be to adjudicate, in a timely manner, all allergic, or possible allergic events.
(§2) In case a patient experiences an allergic reaction or an allergic-like reaction this has to be reported as an adverse event and recorded in the e-CRF on the specific AE form for suspected allergic event. Additional information is collected on specific allergic reaction complementary form. Allergic reaction or possible allergic reaction will be adjudicated by the ARAC (Section 5.4.2).
(§3) The number (%) of patients with events adjudicated as allergic reactions by ARAC and with events adjudicated by ARAC as possibly related to the IMP will be summarized by treatment group. All the allergic events reported by the investigators on the AE form for suspected allergic event and its associated complementary forms (confirmed or not confirmed by ARAC) will be listed.

[1] = system: patients with Type 2 diabetes mellitus (T2DM); assay: Events adjudicated as allergic reaction by ARAC (Example 2); format: in vivo, human
Excerpt: as §1, §2, §3

[2] = on-treatment period, Safety population

Gly(A21)-Arg(B31)-Arg(B32)-human insulin [Insulin Glargine]
% of patients with events adjudicated as allergic reaction by ARAC: Any category, Any event (patients with T2DM): 0.3%
% of patients with events adjudicated as allergic reaction by ARAC: Not Related to IMP (patients with T2DM): 0.3%
% of patients with events adjudicated as allergic reaction by ARAC: Other, Rhinitis allergic (patients with T2DM): 0.3%
% of patients with events adjudicated as allergic reaction by ARAC: category Other (patients with T2DM): 0.3%
Events adjudicated as allergic reaction by ARAC (patients with T2DM): One
Number of patients with events adjudicated as allergic reaction by ARAC: Any category, Any event (patients with T2DM): 1
Number of patients with events adjudicated as allergic reaction by ARAC: Not Related to IMP (patients with T2DM): 1
Number of patients with events adjudicated as allergic reaction by ARAC: Other, Rhinitis allergic (patients with T2DM): 1
Number of patients with events adjudicated as allergic reaction by ARAC: category Other (patients with T2DM): 1
Allergic reaction by ARAC: All; Anaphylactic reaction ([1]; in vivo): 0 Number (%)
Allergic reaction by ARAC: All; Angioedema ([1]; in vivo): 0 Number (%)
Allergic reaction by ARAC: All; Other allergic reaction; Conjunctivitis allergic ([1]; in vivo): 1 (0.2%) Number (%)
Allergic reaction by ARAC: All; Other allergic reaction; Rhinitis allergic ([1]; in vivo): 2 (0.4%) Number (%)
Allergic reaction by ARAC: Not related to IMP; Angioedema ([1]; in vivo): 0 Number (%)
Allergic reaction by ARAC: Not related to IMP; Any category; Any event ([1]; in vivo): 3 (0.6%) Number (%)
Allergic reaction by ARAC: Not related to IMP; Other allergic reaction; Conjunctivitis allergic ([1]; in vivo): 1 (0.2%) Number (%)
Allergic reaction by ARAC: Not related to IMP; Other allergic reaction; Rhinitis allergic ([1]; in vivo): 2 (0.4%) Number (%)
Allergic reaction by ARAC: Possibly related to IMP; Anaphylactic reaction ([1]; in vivo): 0 Number (%)
Allergic reaction by ARAC: Possibly related to IMP; Any category; Any event ([1]; in vivo): 0 Number (%)
Allergic reactions possibly related to IMP (ARAC), number of patients ([1]; in vivo): none
Patients with events adjudicated as allergic reaction by ARAC: All; Any category; Any event ([1]; in vivo): 3 (0.6%) Number (%)
Allergic reaction by ARAC: All; Urticaria (hives); Urticaria [1, 2]: 1 (0.2%) Number (%)
Allergic reaction by ARAC: Not related to IMP; Urticaria (hives); Urticaria [1, 2]: 1 (0.2%) Number (%)
Allergic reaction by ARAC: Possibly related to IMP; Urticaria (hives); Urticaria [1, 2]: 0 Number (%)
